# Results published in publication PMC11947619, “Molecular mechanism of Mad2 conformational conversion promoted by the Mad2‐interaction motif of Cdc20” (Protein Science : A Publication of the Protein Society, 2025).
# B1: Mad1^MIM-529-550 (peptide)
# peptide: RALQGDYDQSRTKVLHMSLNPT
# notes: source: synthetic peptide (Cambridge Research Biochemicals)
# B2: Cdc20^MIM-111-138 (peptide)
# peptide: EHQKAWALNLNGFDVEEAKILRLSGKPQ
# notes: as for B1
# B3: MBP1^MIM (peptide)
# peptide: SWYSYPPPQRAV
# notes: as for B1
# B4: Cdc20^MIM-123-152 (peptide)
# peptide: FDVEEAKILRLSGKPQNAPEGYQNRLKVLY
# notes: also called MIM peptide; source: synthetic peptide (Cambridge Research Biochemicals)
# B5: Cdc20^MIM-123-137 (peptide)
# peptide: FDVEEAKILRLSGKP
# notes: as for B1
# How the values were obtained:
# [1] = molecular target: T1, O‐Mad2^R133A (Homo sapiens, UniProt Q13257, R133A); test: Time-resolved NMR: O-Mad2 to C-Mad2 conversion of O-Mad2^R133A with MIM peptides; assay type: biochemical; conditions: 100 μM O-Mad2^R133A, 25°C
# T1 construct: unable to collect equivalent data for full‐length O‐Mad2^R133A; His6-DoubleStrep-TEV (N); made in house
# T1 sequence (Q13257 whole entry R133A): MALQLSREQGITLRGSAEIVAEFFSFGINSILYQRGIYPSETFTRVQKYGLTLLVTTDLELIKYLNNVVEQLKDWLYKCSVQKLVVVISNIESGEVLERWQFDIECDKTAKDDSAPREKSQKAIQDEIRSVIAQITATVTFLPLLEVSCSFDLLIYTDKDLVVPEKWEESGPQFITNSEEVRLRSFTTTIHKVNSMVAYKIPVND
# Procedure: FIGURE 2 NMR fingerprinting of Mad2. (a) Structural orientations of Trp75 (on the αB helix) and Trp167 (on the “safety‐belt”) in Mad2 produce distinct indole NH resonances. […] NMR spectra for O‐Mad2^R133A and “empty” C‐Mad2^L13A/R133A and C‐Mad2^R133A:Cdc20^MIM‐111‐138 are from Fischer et al. ([2022]) (c) Mad2 conversion rates vary with different MIM peptides. Conversion was traced over 24 h at 25°C using the Trp75 and Trp167 side‐chain resonances as reporters. MIM peptides were added at two‐fold molar excess to Mad2 (100 μM). Each spectrum required 12 min of acquisition time, therefore the 15 min time‐points represent the earliest spectra in the time‐resolved series. The schematics show the conformation of Mad2 as indicated by the tryptophan side‐chain resonances. A black tick marks when conversion is considered complete. NMR data for O‐Mad2^R133A with and without Cdc20^MIM‐111‐138 shown are from Fischer et al. ([2022]). In the case of full‐length Cdc20, the MIM sequence is sequestered by an auto‐inhibitory intramolecular interaction within Cdc20 itself, which prevents it from being readily accessible for binding to C‐Mad2 (Piano et al., [2021]). Conversely, isolated MIM peptides lack this auto‐inhibitory mechanism, allowing them to bind directly to C‐Mad2 without obstruction.
# To understand whether Mad2 conversion times are modulated by different C‐Mad2 ligands, we used time‐resolved NMR to determine the conversion time of 100 μM O‐Mad2^R133A at 25°C. The indole NH resonances of Trp75 and Trp167 were used as reporters (Figure 2b). […] In contrast, conversion took ~24 h in the absence of Cdc20^MIM‐111‐138 peptide (Fischer et al., [2022]) (Figures 2c and S4b). […] Other MIM peptides also accelerated the O‐Mad2 to C‐Mad2 conversion. […] In “empty” C‐Mad2, the β7/β8 hairpin is displaced to expose the β6 strand for pairing with the MIM peptide (Luo et al., [2004]) (Figure S3a).
# Mad2 constructs were expressed in BL21 Star (DE3) cells (Thermo Fisher Scientific), co‐transformed with a pRARE plasmid (Merck). Uniformly labeled proteins were expressed in M9 minimal media (6 g/L Na2HPO4, 3 g/L KH2PO4, 0.5 g/L NaCl) supplemented with 1.7 g/L yeast nitrogen base without NH4Cl and amino acids (Sigma Y1251). 1 g/L ^15NH4Cl and 4 g/L glucose were supplemented for ^15N labeling. For ^13C/^15N double‐labeled samples, unlabeled glucose was replaced with 3 g/L ^13C‐glucose. Protein expression was induced with 0.4 mM IPTG at 16°C overnight. All samples were purified as previously described (Luo & Yu, [2005]; Mapelli et al., [2007]) and all O‐Mad2 variants were kept at 4°C during purification to prevent conversion to C‐Mad2. Prior to all NMR experiments, proteins were dialyzed into 20 mM HEPES, pH 7.0, 100 mM NaCl, 1 mM TCEP. ^13C/^15N‐labeled samples were used for backbone assignment, and all other experimental data were acquired on ^15N‐labeled samples. Proteins were kept on ice before NMR experiments to ensure all O‐Mad2 remained in the open state. For “bound” C‐Mad2, MIM peptides were added in 1:2 molar excess to ensure complete conversion.
# All peptides were synthesized by Cambridge Research Biochemicals, UK. Peptides were dialyzed into 20 mM HEPES, pH 7.0, 100 mM NaCl, and 1 mM TCEP for NMR experiments. The sequences for the peptides used in this study are: Cdc20^MIM‐111‐138 ([…]), Cdc20^MIM‐123‐137 (FDVEEAKILRLSGKP), Cdc20^MIM‐123‐152 ([…]), Cdc20^MIM‐138‐152 (QNAPEGYQNRLKVLY), Mad1^MIM‐529‐550 ([…]), and MBP1^MIM (SWYSYPPPQRAV). […]
# [2] = test system: O‐Mad2; conditions: NMR; ref Luo et al., [2004]; cited from earlier work
# Procedure: To understand whether Mad2 conversion times are modulated by different C‐Mad2 ligands, we used time‐resolved NMR to determine the conversion time of 100 μM O‐Mad2^R133A at 25°C. The indole NH resonances of Trp75 and Trp167 were used as reporters (Figure 2b). […] In contrast, conversion took ~24 h in the absence of Cdc20^MIM‐111‐138 peptide (Fischer et al., [2022]) (Figures 2c and ...
# [3] = experimentally determined; ref Zhao et al., [2016]; cited from earlier work
# [4] = cited from earlier work
# Procedure: In contrast, conversion took ~24 h in the absence of Cdc20^MIM‐111‐138 peptide (Fischer et al., [2022]) (Figures 2c and ...
# [5] = test system: C‐Mad2; conditions: phage-display selected MIM peptide; ref Luo et al., [2002]; cited from earlier work
# [6] = test system: Mad2^∆β7/β8; conditions: ref Yang et al., [2008]; cited from earlier work
# Description: We reasoned that MIM binding to Mad2 is blocked until the β7/β8 hairpin is displaced (Figure 3c,d). To test this hypothesis, we generated a Mad2 variant with a deleted β7/β8 hairpin (Mad2^∆β7/β8: residues 1–165) (Figure 3e). Mad2^∆β7/β8 adopted a stable globular fold, and due to the absence of the C‐terminal residues, it was unable to adopt a closed conformation (Figure 3f). […] This is in agreement with a previous study that showe ...
# [7] = molecular target: T2, Mad2^R133A (human, UniProt Q13257 1-205, R133A); test: time-resolved NMR (series of 2D 1H,15N HSQC spectra); 100 μM 15N Mad2 variant, MIM peptide at two-fold molar excess, 25°C, 20 mM HEPES pH 7.0, 100 mM NaCl, 1 mM TCEP, 5% D2O; Trp75 and Trp167 indole NH resonances as reporters of the ligand-bound closed state; 12 min per spectrum, up to 24 h; conditions: both partners purified
# T2 construct: Mad2, human, full-length, R133A; Tag is followed by a TEV site; 15N-labelled for NMR; Starts in the open state; also called O-Mad2^R133A; C-Mad2^R133A; source: E. coli BL21 Star (DE3) with pRARE, purified
# T2 sequence (Q13257 whole entry R133A): as above
# [8] = molecular target: T3, human wild-type Mad2 (human, UniProt Q13257 1-205); test: SEC; excess of Mad1^MIM peptide added to O-Mad2^WT, complex purified by size-exclusion chromatography; conditions: both partners purified
# T3 construct: Mad2, human, wild type; limits follow from Mad2^Δβ7/β8 (residues 1-165), made from this construct by deleting residues 166-205; Tag is followed by a TEV site; 15N-labelled for NMR; Expressed and kept cold as the open state (O-Mad2); Construct described in Fischer et al. 2022; also called Mad2^WT; O-Mad2^WT; source: E. coli BL21 Star (DE3) with pRARE, purified
# T3 sequence (Q13257 whole entry, the tested form may be a part): as the sequence (Q13257 whole entry R133A) above, with A133R counted along it
# [9] = molecular target: T4, Mad2^L13A/R133A (human, UniProt Q13257 1-205, L13A | R133A); test: time-resolved NMR (series of 2D 1H,15N HSQC spectra); 100 μM 15N Mad2 variant, MIM peptide at two-fold molar excess, 25°C, 20 mM HEPES pH 7.0, 100 mM NaCl, 1 mM TCEP, 5% D2O; Trp75 and Trp167 indole NH resonances as reporters of the ligand-bound closed state; 12 min per spectrum, up to 24 h; conditions: both partners purified
# T4 construct: Mad2, human, full-length, L13A and R133A; made from the Mad2^R133A mutant; Adopts the closed state without ligand; Tag is followed by a TEV site; also called “empty” C-Mad2; C-Mad2^L13A/R133A; source: E. coli BL21 Star (DE3) with pRARE, purified
# T4 sequence (Q13257 whole entry L13A/R133A): as the sequence (Q13257 whole entry R133A) above, with L13A counted along it
# [10] = molecular target: T5, Mad2^LL (human, UniProt Q13257 1-205, residues 109–117 (TAKDDSAPR) with GSG); test: as above; conditions: both partners purified
# T5 construct: Mad2, human; wild-type construct with residues 109-117 of the β5-αC loop replaced by GSG; Tag is followed by a TEV site; also called loop-less Mad2 mutant; O-Mad2^LL; source: E. coli BL21 Star (DE3) with pRARE, purified
# T5 sequence (Q13257 other isoform, or with tags, fused parts or gaps with the stated changes): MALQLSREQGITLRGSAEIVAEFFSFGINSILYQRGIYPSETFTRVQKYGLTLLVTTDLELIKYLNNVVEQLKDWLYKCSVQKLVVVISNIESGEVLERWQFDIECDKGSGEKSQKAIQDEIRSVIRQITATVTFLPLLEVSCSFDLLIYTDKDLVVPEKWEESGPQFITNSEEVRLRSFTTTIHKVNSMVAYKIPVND
# [11] = molecular target: T6, Mad2^LL/R133A (human, UniProt Q13257 1-205, residues 109–117 (TAKDDSAPR) with GSG | R133A); test: time-resolved NMR (series of 1H,15N SOFAST-HMQC spectra, residue conversion rates); 200 μM Mad2 variant, 950 MHz, 25°C, 500 spectra of 5 min over 42 h; disappearance of O-Mad2 and appearance of C-Mad2:Cdc20^MIM backbone resonances; conditions: both partners purified
# T6 construct: Mad2, human; Mad2^LL construct (residues 109-117 replaced by GSG) with Ala for Arg133; numbers count on wild-type Mad2; Tag is followed by a TEV site; also called O-Mad2^LL/R133A; source: E. coli BL21 Star (DE3) with pRARE, purified
# T6 sequence (Q13257 other isoform, or with tags, fused parts or gaps with the stated changes): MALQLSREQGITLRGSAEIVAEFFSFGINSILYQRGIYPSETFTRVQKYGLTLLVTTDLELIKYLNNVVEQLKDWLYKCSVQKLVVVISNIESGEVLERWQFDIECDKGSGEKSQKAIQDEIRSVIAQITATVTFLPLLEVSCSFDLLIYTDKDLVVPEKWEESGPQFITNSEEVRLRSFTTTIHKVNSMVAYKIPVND
molecule,measurement,setting,value
"FDVEEAKILRLSGKP [Cdc20^MIM‐123‐137, Cdc20^MIM spanning residues 123–137]","Mad2 conversion rate/efficiency, in words","[1]; time-resolved NMR, compared with other Cdc20^MIM peptides",triggered Mad2 conversion at a similar rate as Cdc20^MIM‐111‐138
"Mad1 residues 540–551: Mad1 residues 540–551, earlier NMR study (Luo et al., [2004]) (TKVLHMSLNPTS; UniProt Q9Y6D9 540-551, looked up, fragment)","effect on O-Mad2 to C-Mad2 conversion, in words",[2],facilitate this conversion
O‐Mad2: Mad2 in the open inactive state,melting temperature,[3],69 °C
same,"t1/2 of intrinsic O-Mad2 to C-Mad2 conversion, in words","[4]; in solution, ref Faesen et al., [2017], Lad et al., [2009], Luo et al., [2004], Simonetta et al.",multiple hours
O‐Mad2^R133A: dimerization‐deficient mutant Mad2^R133A in its open state,"spontaneous conversion time to ""empty"" C-Mad2","[4]; 100 μM, 25°C, absence of Cdc20^MIM-111-138 peptide, ref Fischer et al., [2022]",~ 24 h
SWYSYPPPQRAV [MBP1^MIM],"C-Mad2 affinity, in words",[5],enhanced C‐Mad2 affinity
same,time to complete Mad2 conversion,"[1]; two-fold molar excess peptide, 20 mM HEPES pH 7.0, 100 mM NaCl, 1 mM TCEP, 5% D2O, Trp75/Trp167 indole NH reporters, 12 min per spectrum",≤ 60 min
same,"interaction with Mad2^∆β7/β8, in words",[6],weak interaction
B1,binding result,[7],binds
same,binding result,[8],binds
B2,binding result,[9],binds
same,binding result,[10],binds
B3,binding result,[7],binds
B4,binding result,[7],binds
same,binding result,[11],binds
B5,binding result,[7],binds
